# Source: publication PMC10705477 (bioRxiv, 2023)
# B1: γ protein of the E. coli clamp loader, truncated form (residues 1–373) (domain or fragment)
# chain: MSYQVLARKWRPQTFADVVGQEHVLTALANGLSLGRIHHAYLFSGTRGVGKTSIARLLAKGLNCETGITATPCGVCDNCREIEQGRFVDLIEIDAASRTKVEDTRDLLDNVQYAPARGRFKVYLIDEVHMLSRHSFNALLKTLEEPPEHVKFLLATTDPQKLPVTILSRCLQFHLKALDVEQIRHQLEHILNEEHIAHEPRALQLLARAAEGSLRDALSLTDQAIASGDGQVSTQAVSAMLGTLDDDQALSLVEAMVEANGERVMALINEAAARGIEWEALLVEMLGLLHRIAMVQLSPAALGNDMAAIELRMRELARTIPPTDIQLYYQTLLIGRKELPYAPDRRMGVEMTLLRALAFHPRMPLPEPEVPRQ
# B2: γ-K141A (domain or fragment)
# chain: MSYQVLARKWRPQTFADVVGQEHVLTALANGLSLGRIHHAYLFSGTRGVGKTSIARLLAKGLNCETGITATPCGVCDNCREIEQGRFVDLIEIDAASRTKVEDTRDLLDNVQYAPARGRFKVYLIDEVHMLSRHSFNALLATLEEPPEHVKFLLATTDPQKLPVTILSRCLQFHLKALDVEQIRHQLEHILNEEHIAHEPRALQLLARAAEGSLRDALSLTDQAIASGDGQVSTQAVSAMLGTLDDDQALSLVEAMVEANGERVMALINEAAARGIEWEALLVEMLGLLHRIAMVQLSPAALGNDMAAIELRMRELARTIPPTDIQLYYQTLLIGRKELPYAPDRRMGVEMTLLRALAFHPRMPLPEPEVPRQ
# Columns and labels:
# cryo-EM structure = molecular target: the molecule itself; assay: cryo-EM structure
# [1] = molecular target: the molecule itself; assay: co-purification on an anion-exchange column
Protein,binding result (cryo-EM structure),binding result [1]
B1,binds,–
B2,–,binds
